Laboratory results from US20040233833A1, “Methods for identifying compounds with thrapeutic potential for treatment of central Neurodegenerative diseases resulting from abnormal protein or peptide accumulation” (priority 2001, published 2004).

REGγ (wild-type), sequence (P61289 whole entry): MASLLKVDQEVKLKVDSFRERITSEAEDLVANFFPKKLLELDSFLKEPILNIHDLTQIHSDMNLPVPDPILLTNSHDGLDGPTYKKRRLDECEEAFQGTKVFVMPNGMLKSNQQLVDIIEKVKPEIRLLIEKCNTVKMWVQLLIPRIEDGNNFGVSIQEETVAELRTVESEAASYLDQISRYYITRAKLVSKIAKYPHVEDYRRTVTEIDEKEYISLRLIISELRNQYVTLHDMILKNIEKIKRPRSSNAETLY

Each substance was assayed against 20S proteasome (human red blood cell proteasomes) (human) (assay: competition assay with REGα(N146Y)/REGβ(N135Y) as competitor for the proteasome).
A Relative affinity for proteasome (% of wild-type REGγ) of 75 was found for REGγ(K188Q) (from UniProt P61289 1-254) in this work.
A Relative affinity for proteasome (% of wild-type REGγ) of 60 was found for REGγ(K188I) (from UniProt P61289 1-254) in this work.
A Relative affinity for proteasome (% of wild-type REGγ) of 60 was found for REGγ(K188C) (from UniProt P61289 1-254) in this work.
A Relative affinity for proteasome (% of wild-type REGγ) of 60 was found for REGγ(K188A) (from UniProt P61289 1-254) in this work.
A Relative affinity for proteasome (% of wild-type REGγ) of 90 was found for REGγ(K188D) (from UniProt P61289 1-254) in this work.
A Relative affinity for proteasome (% of wild-type REGγ) of 40 was found for REGγ(K188F) (from UniProt P61289 1-254) in this work.
A Relative affinity for proteasome (% of wild-type REGγ) of 50 was found for REGγ(K188S) (from UniProt P61289 1-254) in this work.
A Relative affinity for proteasome (% of wild-type REGγ) of 75 was found for REGγ(K188N) (from UniProt P61289 1-254) in this work.
A Relative affinity for proteasome (% of wild-type REGγ) of 75 was found for REGγ(K188R) (from UniProt P61289 1-254) in this work.
A Relative affinity for proteasome (% of wild-type REGγ) of 40 was found for REGγ(K188P) (from UniProt P61289 1-254) in this work.
A Relative affinity for proteasome (% of wild-type REGγ) of 50 was found for REGγ(K188H) (from UniProt P61289 1-254) in this work.
A Relative affinity for proteasome (% of wild-type REGγ) of 90 was found for REGγ(K188E) (from UniProt P61289 1-254) in this work.
A Relative affinity for proteasome (% of wild-type REGγ) of 100 was found for “REGγ (wild-type) (from UniProt P61289 1-254)” in this work.
A Relative affinity for proteasome (% of wild-type REGγ) of 0 was found for REGα (from UniProt Q06323 1-249) in this work.

The substances below were run against 20S proteasome (human red blood cell proteasomes) (human) (assay: cell-based or functional assay).
A rate of CT/PGPH labeling by 125I-YL3-VS, fold over proteasome alone of 11.9 fold and a rate of T-subunit labeling by 125I-YL3-VS, fold over proteasome alone of 10.8 fold were found for REGγ(K188E) (from UniProt P61289 1-254) in this work.
A half-life of the 49-residue peptide BBC1 with the proteasome of 45 min, a rate of CT/PGPH labeling by 125I-YL3-VS, fold over proteasome alone of 4.4 fold and a rate of T-subunit labeling by 125I-YL3-VS, fold over proteasome alone of 4.7 fold were found for “REGγ (wild-type) (from UniProt P61289 1-254)” in this work.
